Where two headings read alike, the source gives them in different places.
What was measured:
relaxin receptor (LGR7) [1] = target: T1, relaxin receptor (LGR7); test: cell-based or functional assay
T1 sequence (Q9HBX9 whole entry, species assumed, looked up): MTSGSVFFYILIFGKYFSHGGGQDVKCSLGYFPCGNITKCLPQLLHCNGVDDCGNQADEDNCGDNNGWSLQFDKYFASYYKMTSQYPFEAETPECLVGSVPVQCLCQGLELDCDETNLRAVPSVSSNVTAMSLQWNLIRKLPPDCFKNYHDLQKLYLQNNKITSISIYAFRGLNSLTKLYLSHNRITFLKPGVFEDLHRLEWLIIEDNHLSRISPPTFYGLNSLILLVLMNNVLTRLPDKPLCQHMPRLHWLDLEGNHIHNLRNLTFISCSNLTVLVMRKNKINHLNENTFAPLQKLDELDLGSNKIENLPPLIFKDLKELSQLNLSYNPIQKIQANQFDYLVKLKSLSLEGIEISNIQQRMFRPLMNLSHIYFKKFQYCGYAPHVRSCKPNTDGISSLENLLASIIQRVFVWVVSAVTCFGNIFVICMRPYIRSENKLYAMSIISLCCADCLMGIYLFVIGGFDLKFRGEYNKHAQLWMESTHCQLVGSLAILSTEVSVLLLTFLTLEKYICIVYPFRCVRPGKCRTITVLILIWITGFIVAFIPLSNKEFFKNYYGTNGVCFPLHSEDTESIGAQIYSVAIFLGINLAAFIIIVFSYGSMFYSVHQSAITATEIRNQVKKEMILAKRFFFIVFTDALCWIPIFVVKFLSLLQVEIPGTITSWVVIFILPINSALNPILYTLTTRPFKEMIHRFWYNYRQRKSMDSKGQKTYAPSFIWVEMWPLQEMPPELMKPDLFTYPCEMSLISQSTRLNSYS

relaxin receptor (LGR7) [2] = target: T1, relaxin receptor (LGR7); test: cell-based or functional assay; remark: listed apart in the source
[3] = target: T2, hLGR7 (UL-hLGR7-Cre-Luc reporter cell line) (human ('hLGR7')) (UniProt Q9HBX9); test: cell-based or functional assay
T2 sequence (looked up): T1 sequence (Q9HBX9 whole entry, species assumed, looked up)

RSV F protein = RSV F protein (UniProt P03420); test: ELISA, 100 ng/well RSV F protein coated, HRP anti-human IgG (Fc specific), QuantaBlu fluorescence (10 min)
RSV F protein, sequence (P03420 26-524): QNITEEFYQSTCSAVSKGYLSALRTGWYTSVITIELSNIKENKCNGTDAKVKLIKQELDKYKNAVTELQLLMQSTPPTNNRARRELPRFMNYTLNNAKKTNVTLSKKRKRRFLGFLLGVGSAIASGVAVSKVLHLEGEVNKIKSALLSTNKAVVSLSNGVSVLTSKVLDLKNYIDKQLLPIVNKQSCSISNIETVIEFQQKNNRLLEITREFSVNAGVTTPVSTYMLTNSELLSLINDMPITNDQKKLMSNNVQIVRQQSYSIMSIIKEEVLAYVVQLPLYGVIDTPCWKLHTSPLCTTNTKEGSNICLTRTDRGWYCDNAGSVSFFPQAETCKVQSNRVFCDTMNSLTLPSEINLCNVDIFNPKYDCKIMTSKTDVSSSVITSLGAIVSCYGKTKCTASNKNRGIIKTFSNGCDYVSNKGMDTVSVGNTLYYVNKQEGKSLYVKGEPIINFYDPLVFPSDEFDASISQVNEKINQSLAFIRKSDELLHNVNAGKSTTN

EC50, CRE-luciferase reporter assay (relaxin receptor (LGR7) [1])	EC50, CRE-luciferase reporter assay (relaxin receptor (LGR7) [2])	EC50, UL-hLGR7-Cre-Luc reporter cell line [3]	SA [3]	Substance	Kd (RSV F protein)
0.022 nM	0.0223 nM	0.02 nM	1000 units/µg	relaxin-2 peptide (from UniProt P04090 25-185) (ligand)	–
–	–	–	–	Herceptin (antibody)	1350 nM
